Source: patent US20130102031A1

T1: human IL-17a (human) (UniProt Q16552)
T1 sequence (looked up): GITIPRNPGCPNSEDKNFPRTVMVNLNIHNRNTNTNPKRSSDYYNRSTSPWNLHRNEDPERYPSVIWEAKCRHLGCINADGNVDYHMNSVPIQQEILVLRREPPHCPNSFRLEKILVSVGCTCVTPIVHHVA


Assays:
βNGF (human) [1] = target: βNGF (human) (UniProt P01138); test: HTRF competition: test antibody titrated against biotinylated Tanezumab (Streptavidin-XL665) for cryptate-labelled βNGF, 665 nm/620 nm ratio, three parameter fit
human IL-17a (human) = target: T1, human IL-17a (human); test: KinExA 3000 solution equilibrium, N-curve analysis; human IL-17a on beads
βNGF (human) [2] = target: βNGF (human) (UniProt P01138); test: HTRF competition; test antibody titrated against biotinylated Tanezumab for labeled βNGF

Chain of UniProt P01138 (P01138 122-239 limits assumed): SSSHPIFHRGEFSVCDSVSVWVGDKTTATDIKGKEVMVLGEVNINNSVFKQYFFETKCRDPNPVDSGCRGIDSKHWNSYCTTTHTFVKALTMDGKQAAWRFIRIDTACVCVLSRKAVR

IC50 (βNGF (human) [1]) [nM] | Kd (human IL-17a (human)) [nM] | fold more potent IC50 than the HC encoded by SEQ ID NO: 16 (βNGF (human) [2]) [fold] | Molecule
4910 | – | – | NEG CNT (antibody)
– | 0.067 | – | anti-IL17a antibody containing the HC lacking the CDR3 insertion (encoded by SEQ ID NO: 29) (antibody, part only; not given: light chain and constant region, V domains shown, part only) VH: EVQLVESGGGLVQPGGSLRLSCAASGFTFSNHWMNWVRQTPGKGLEWVAAINEDGSEKYYVGSVKVRFTISRDNAKNSLYLQMNSLRVEDTAVYYCARDYYDILTDYYIHYWYFDLWGRGTLVTVSSASTKGPSVFPLAP
181 | – | 6 | anti-NGF antibody containing the HC with a CDR1 insertion encoded by SEQ ID NO: 19 (antibody, part only; not given: light chain and constant region, V domains shown, part only) VH: QVQLVQSGAEVKKPGSSVKVSCKASGDTFSNYATGDTFSNYAISWVRQAPGQGFEWMGGIIPIFGIANYAQKFQGRVTITADESTSTAYMELSSLRSEDTAVYYCARGPEYYDYVWGSYRYNYFDYWGQGTLVTVSS
